Assay results published in patent US20200277373A1, “ANTI-TREM2 ANTIBODIES AND METHODS OF USE THEREOF” (Denali Therapeutics Inc., priority 2017, published 2020).

T1: TREM2 (Homo sapiens, UniProt Q9NZC2)
T1 construct: macrophage cells that endogenously express TREM2; endogenous in cells; host or cells: primary human monocyte-derived macrophages from donor blood
T1 sequence (Q9NZC2 19-230): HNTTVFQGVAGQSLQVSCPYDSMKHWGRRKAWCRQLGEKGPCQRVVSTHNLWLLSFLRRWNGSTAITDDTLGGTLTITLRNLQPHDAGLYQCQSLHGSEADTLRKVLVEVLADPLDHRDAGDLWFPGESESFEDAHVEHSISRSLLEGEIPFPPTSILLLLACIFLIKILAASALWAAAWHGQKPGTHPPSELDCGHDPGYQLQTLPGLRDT


Legend:
TREM2 = molecular target: T1, TREM2; test: TREM2 pSyk antagonist assay on human macrophages (antibody pre-incubation, then liposomes); type: cell-based; details: FIGS. 9C-9D, 30 nM antibody
Experimental: Human macrophages were differentiated from donor blood using a human monocyte enrichment cocktail (Stem Cell Technologies) and culturing monocytes with human mCSF for five days in macrophage media (RPMI+10% Hyclone FBS+Glutamax+Pen/Strep+non-essential amino acids+sodium pyruvate). On the fifth day, the human macrophages were scraped from the flasks and were re-plated at 100,000 cells/well on a 96-well poly-D-lysine-coated plate in the macrophage media (without mCSF). The cells were incubated for 24 hours to adhere, then the media was removed.
Antibodies diluted in RPMI alone were immediately added to the cells, and allowed to incubate for 30 minutes at 37° C. The antibodies were then removed. Lipid vesicles comprised of 70% DOPC and 30% POPS (made according to the procedure for making vesicles described above) in HBSS were added to the cells and incubated […] at 37° C. The liposome/antibody solution was removed, and 35 μL lysis buffer (Cell Signaling Technologies, CST) was added using the liquid handler. The lysate was then incubated at 4° C. for 30 minutes, then either frozen at −80° C. or immediately carried forward to a pSyk AlphaLISA assay as described above.

human macrophages = test: Cell survival assay, human monocyte-derived macrophages, restricted or no M-CSF, CellTiter Glo; type: cell-based; details: plate coated antibody, 5 ng/mL or no M-CSF, day 6
Experimental: TREM2 can support microglia energy homeostasis (Ulland et al., Cell, 2017, 170:649-663). […] To understand if enhancing TREM2 activity with TREM2 agonistic antibodies is sufficient for macrophage/microglia survival under limited M-CSF conditions, human macrophage differentiation and survival studies were performed using antibodies as described herein. Human monocytes isolated from peripheral blood were incubated with 5 ng/mL M-CSF in the presence of titrated concentrations of plate coated TREM2 antibodies or isotype controls. On day 6 cell viability was determined by CellTiter Glo viability assay.

[1] = molecular target: T2, Human TREM2 expressing HEK cells (Homo sapiens, UniProt Q9NZC2); test: FACS surface binding on HEK 293 overexpressing human TREM2 (H6); details: FIG. 1A, mixed cell lines
T2 construct: expressed in transfected cells
T2 sequence (O43914 22-113 partner, one chain of several): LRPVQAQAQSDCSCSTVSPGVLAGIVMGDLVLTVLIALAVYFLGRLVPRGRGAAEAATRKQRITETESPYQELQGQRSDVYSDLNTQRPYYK
Experimental: HEK 293 overexpressing human TREM2 (H6) and HEK 293 overexpressing GFP (B5) were harvested by 0.05% trypsin and incubated at 37° C. for 2 hours for surface TREM2 recovery. 293F overexpression mouse TREM2 were harvested and labelled with NucBlue live cell stain ReadyProbes reagent for 10 minutes (2 drops of reagent added per mL of media). After labeling, cells were washed twice with 1×PBS. NucBlue labeled 293F cells were mixed with H6 and B5 in FACS buffer (PBS-+-0.5% BSA) with human Trustain FcX solution (Biolegend, cat #422302) at a density of 10^6/mL per cell line. Mixed cell lines were seeded at 300,000 cells per well in a 96-well round-bottom and incubated 20 minutes at room temperature. After incubation, cells were centrifuged and test anti-TREM2 antibodies were added, then incubated for 45 minutes on ice. After incubation, cells were centrifuged and washed with FACS buffer three times. Cells were then incubated with secondary antibody (Alexa Fluor 647 AffiniPure F(ab′)2 fragment goat anti-mouse IgG, Fcγ fragment specific (1:200, Jackson ImmunoResearch, cat #115-606-071) for 30 minutes on ice. After incubation, cells were washed with FACS buffer three times and resuspended in 90 μL of FACS buffer, then analyzed by flow cytometry (BD FACSCanto II, San Jose, Calif.). 20,000 events were obtained for each sample.

liposome mediated pSyk signaling after antibody pre-incubation (TREM2)	Molecule	survival of human macrophages (human macrophages)	binding to human and mouse TREM2 HEK cells (in words) [1]
blocked	21D11: anti-TREM2 antibody clone; VH SEQ ID NO:14, VL SEQ ID NO:25 (antibody, V domains shown) VH: QVQLQQSGAELARPGASVKLSCKASGYTFTSYWIQWVKQRPGQGLEWIGTIYPGDGDARYTQKFKGKATLTADKSSSTTYMQLNSLASEDSAVYYCARNGITTAGYYAMDYWGQGTSVTVSS VL: DIQMTQSPASLSVSVGETVTITCRASENIYSNLAWYQQKQGRSPQLLVYAATNLADGVPSRFSGSGSGTQYSLKINSLQSEDFGYYYCQHFWGTPYTFGGGTKVEIK	–	–
–	RS9.F6: anti-TREM2 antibody clone; VH SEQ ID NO:24, VL SEQ ID NO:35 (antibody, V domains shown) VH: QVQLQQPGAELVKPGASVKLSCKASGYTFTSYWMHWVKQSPGRGLEWIGRSDPTTGGTNYNEKFKTKATLTVDKPSSTAYMQLSSLTSDDSAVYYCVRTSGTGDYWGQGTSLTVSS VL: DVVMTQTPLSLPVSLGDQASISCRSSQSLVHNNGNTFLHWYLQKPGQSPKLLIYKVSNRFSGVPDRFSGSGSGTDFTLKISRVEAEDLGVYFCSQTTHVPPTFGGGTKLEIK	increased the survival	binding to both mouse and human TREM2 cells
